{"source": "patent US20240409618A1", "target": "SARS-CoV-2 B.1.351 (Beta) spike on pseudotyped virus (SARS-CoV-2 B.1.351) (UniProt P0DTC2)", "experiment": "cell-based or functional assay"}
{"substance": "DMAb REGN10987 (FcWT) (antibody)", "values": [{"measurement": "fold change of neutralization against B.1.351 pseudovirus relative to WA1/2020", "result": "< 3", "unit": "fold"}]}
